Results from paper PMC6283471.

B1: 125I-CCL3, P10147 24-92 (ligand)
chain: SLAADTPTACCFSYTSRQIPQNFIADYFETSSQCSKPGVIFLTKRSRQVCADPSEEWVQKYVSDLELSA
modifications: ends and bridges not checked; also: 125I-labelled, site not given here

Assays:
[1] = target: CCR5 on HEK-R5 cells (HEK 293T cells stably expressing CCR5) (UniProt P51681); test: radioligand binding
[2] = target: FLAG/SNAP-tagged wild-type (WT) CCR5, P51681; test: radioligand binding; conditions: remark: other sources report otherwise

Row | Molecule | Kd [1] [nM] | Kd [2] [nM]
1 | gp120 Bx08-sCD4 complex (from UniProt P01730) | 14.1 | 
2 | B1 |  | 0.36
